The values below come from US20260125455A1.

Assay [1] concerns the target human C5b6 complex (human) (UniProt P01031). Nature of the assay: ELISA, C5b6-coated wells. In general terms: ELISA stands for enzyme-linked immunosorbent assay.
Assay [2] shares this target. Nature of the assay: ELISA, C5b6-coated wells, purified antibody.
Assay [3] shares this target. Nature of the assay: ELISA, C5b6-coated wells, large-scale purified antibody.

What is called EC50 is the concentration giving half of the maximal effect. Lower therefore signals a more potent agent.

B1: MoC601 HuG4K (chimeric C601 antibody) (antibody, human IgG4 S228P, kappa, V domains shown)
VH: QVQLQQSGAELVKPGASVKISCKASGYAFSDYWMNWVKQRPGKGLEWIGQIYPGDDDTNYNGKFKGKATLTADKSSSTAYMQLSSLTSEDSAVYFCAREGYYGYTYVEYFDVWGTGTTVTVSS
VL: QIVLTQSPAIMSVSPGEKVTLTCSASSSVSYMHWYQQKSGTSPKRWIYDTSKLASGVPARFSGSGSGTSYSLTISSMEAEDAATYYCQQWTSNPLTFGAGTKLELRR
On to B1, for which the EC50 in assay [1] and in assay [2] was 0.09 nM throughout.

B2: C601HOKC4 HuG4K (antibody, human IgG4 S228P, kappa, V domains shown)
VH: QVQLVQSGAEVKKPGESLKISCKASGYAFSDYWINWVRQMPGKGLEWMGQIYPGDDDTNYNPSFQGQATLSADKSISTAYLQWSSLKASDTAMYYCAREGYYGYTYVEYFDVWGTGTTVTVSS
VL: QIVLTQSPATLSLSPGERATLSCRASSSVSYLHWYQQKPGQSPRLWIYDTSKRATGIPARFSGSGSGTDYTLTISSLEPEDFAVYYCQQWTSNPLTFGQGTKLEIKR
On to B2, for which the EC50 in assay [3] was 0.11 nM.
